From patent US20260069728A1, “MULTI-TARGETING COMPOUND AND USE THEREOF” (Chengdu Shetai Medical Technology Co., Ltd., priority 2023, published 2026)
Where two headings read alike, the source gives them in different places. *1 amine or outer side, *2 acyl side, *3 side chain or, on linkers, in order; H or OH if unused. Where a SMILES comes first, the peptide text is derived from it. Bridges are numbered along the chain shown (N, C = ends). [ ]: non-standard residue; d: D form. The star is where a group is joined. X1 = N#C[C@@H]1CC(F)(F)CN1C(=O)CNC(=O)c1ccnc2ccc(OCCCN3CCN(*)CC3)cc12; DOTA = O=C(O)CN1CCN(CC(=O)O)CCN(CC(=O)*)CCN(CC(=O)O)CC1; 2Nal = N[C@@H](Cc1ccc2ccccc2c1)C(=O)O; Cit = NC(=O)NCCC[C@H](N)C(=O)O; Suc = O=C(CCC(=O)[*:2])[*:1]; AEEA = NCCOCCOCC(=O)O

Tests used:
[1] = Determination of hydrophilicity/lipophilicity (n-octanol/water distribution coefficient); type: physicochemical; settings: HEPES buffer pH=7.4 / n-octanol
Description: 10 μL of Purified ^68Ga-SDYD01 was diluted to 500 μL with HEPES buffer (pH=7.4), then 500 μL of n-octanol was added. The mixture was vortexed for 30 min and then centrifuged. Subsequently, 450 μL each of the aqueous and organic phases were taken and centrifuged again. Then, 100 μL each of the aqueous and organic phases were taken, and the radioactivity was measured using a γ counter to calculate the n-octanol/water distribution coefficient (Log Do/w). The measured Log Do/w value for ^68Ga-SDYD01 was −2.54±0.01, and for ^177Lu-SDYD01 was −2.55±0.05.
(§1) 10 μL of purified ^68Ga-SDYD02 was diluted to 500 μL with HEPES buffer (pH=7.4), then 500 μL of n-octanol was added. […] Then, 100 μL each of the aqueous and organic phases were taken, and the radioactivity was measured using a γ counter to calculate the n-octanol/water distribution coefficient (Log Do/w). The measured Log Do/w value for ^68Ga-SDYD02 was −2.47±0.03, and for ^177Lu-SDYD02 was −2.35±0.02.
as §1, with “^68Ga-SDYD05” for “^68Ga-SDYD02”, “−2.37±0.02,” for “−2.47±0.03,”, “^177Lu-SDYD05” for “^177Lu-SDYD02”, “−2.46±0.05. […]” for “−2.35±0.02.”

[2] = Small animal PET imaging and biodistribution study; type: in vivo, NSG mice; settings: NSG, mouse, in vivo, iv, 7.4 MBq, total radioactivity
In short: (§2)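 NSG mice bearing ~150 mm^3 subcutaneous U87 MG tumours received ~7.4 MBq of 68Ga-labelled tracer i.v., with micro-PET/CT static 20-min 3D scans at 30, 60 and 120 min. For biodistribution, mice were euthanised at 30/60/120 min, or 30/60/90 min for SDYD07, SDYD08 and SDYD07-1. Tissue radioactivity was decay-corrected and expressed as SUV and %ID/g.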

[3] = system: subcutaneous xenograft tumors (U87 MG cells); assay: Small animal PET imaging and biodistribution study; type: in vivo, NSG mice
In short: as §2

[4] = absolute uptake value in the tumor

Row | SMILES | n-octanol/water distribution coefficient (Log Do/w) [1] | tissue uptake at 0.5 h [2, 4] | tissue uptake at 1 h [2, 4] | radioactive uptake in the tumor sites (in words) ([3]; mouse, in vivo) | tissue uptake at 0.5 h ([2]; 30 minutes post-injection, read-out: absolute uptake value in the tumor) | tissue uptake at 1 h ([2]; 60 minutes post-injection, read-out: absolute uptake value in the tumor) | radioactive uptake in the tumor sites (in words) ([3]; tail vein injection, U87 MG tumor-bearing NSG mice)
1 | N#C[C@@H]1CC(F)(F)CN1C(=O)CNC(=O)c1ccnc2ccc(OCCCN3CCN(C(=O)CCC(=O)N[C@@H](CCCCNC(=O)CN4CCN(CC(=O)O)CCN(CC(=O)O)CCN(CC(=O)O)CC4)C(=O)NCCOCCOCC(=O)NCCOCCOCC(=O)N[C@@H](CCCNC(=N)N)C(=O)N[C@@H](CCCNC(=N)N)C(=O)N[C@@H](Cc4ccc5ccccc5c4)C(=O)N[C@H]4CSSC[C@@H](C(=O)N[C@@H](CCCNC(=N)N)C(N)=O)NC(=O)[C@H](CCCNC(N)=O)NC(=O)[C@H](CCCNC(=N)N)NC(=O)[C@H](Cc5ccc(O)cc5)NC(=O)[C@@H]5CCCN5C(=O)[C@H](CCCCN)NC(=O)[C@H](CCCCN)NC(=O)[C@H](CCCNC(N)=O)NC(=O)[C@H](Cc5ccc(O)cc5)NC4=O)CC3)cc12 [^68Ga-SDYD01, metal not drawn] ({X1-Suc}-K(DOTA)[AEEA][AEEA]RR[2Nal]CY[Cit]KKPYR[Cit]CR-NH2; disulfide 7-16) | −2.54±0.01 | ≥ 10 %ID/g | ≥ 10 %ID/g | significant radioactive uptake in the tumor sites | – | – | –
2 | CCCCCC(=O)N[C@H]1CSCc2cc(CSCCNC(=O)[C@H](CCCCNC(=O)CN3CCN(CC(=O)O)CCN(CC(=O)O)CCN(CC(=O)O)CC3)NC(=O)COCCOCCNC(=O)COCCOCCNC(=O)CCN3C(=O)CC(SCCNC(=O)CCC(=O)NCc4ccc(NC(=O)COCC(=O)N[C@H](Cc5ccccc5)C(=O)N[C@@H](CCC(N)=O)C(=O)N[C@@H](Cc5c[nH]c6ccccc56)C(=O)N[C@@H](C)C(=O)N[C@H](C(=O)NCC(=O)N[C@@H](Cc5c[nH]cn5)C(=O)NC(CC(C)C)CC(C)C)C(C)C)cc4)C3=O)cc(c2)CSC[C@@H](C(=O)O)NC(=O)[C@H](Cc2ccccc2)NC(=O)[C@H](CCC(N)=O)NC(=O)C([C@@H](C)O)NC(=O)[C@@H]2CCCN2C(=O)[C@@H]2CCCN2C1=O (some centres unmarked) [^68Ga-SDYD04, metal not drawn] | −1.63±0.07 | – | – | – | ≥ 10 %ID/g | ≥ 10 %ID/g | significant radioactive uptake in the tumor sites
